Data: a protein production outcome set (Wang et al. 2014)

Experiment: label from the status in PepcDB records
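Further: failed if final PepcDB status was selected cloned or expressed and not failed if soluble or beyond.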

## MMSDLPRDLLEERLSRVPVKSLREARFTCKNWKTLSKKRSFTKKHLAQEATSRESEFKVVMVLHCKVYLTSINLRGIHNGFDPSINRQAKLVSLNGTDQIDISEVYHCDGLLLCISKDYTRVVVWNPYRSQTLWLKPSSPDHRMDWYICAIGYEKRKSSLRYKVLRFVDFAEEEFVEYEIYELKSNSWRVLDVTSDWEVEFYARGVSLKGNTYWFATDKFPEISSNLIHSVYFLLCFNFTSERFGPRLHLPCYPMDVDTVSLSSVREEQLAVLFQRKDNLHMEIWVTTKIEPEEVMWSKLFLAVDMQPLTDFKFGIADASFIIDEEKKVVVVFAKDKDVMYPTHNTAYIIGEDGYYKEVDLGKTTDKIRDPLVCSYVPSSAQIKQGGKRKKKGKLITD
  protein production: failed

## GNLSFLATSDGASLAYRLDGAAEKPLLALSNSIGTTLHMWDAQLPALTRHFRVLRYDARGHGASSVPPGPYTLARLGEDVLELLDALEVRRAHFLGLSLGGIVGQWLALHAPQRIERLVLANTSAWLGPAAQWDERIAAVLQAEDMSETAAGFLGNWFPPALLERAEPVVERFRAMLMATNRHGLAGSFAAVRDTDLRAQLARIERPTLVIAGAYDTVTAASHGELIAASIAGARLVTLPAVHLSNVEFPQAFEGAVLSFLGA
  protein production: not failed

## MNSIKTPLLFLLIAFSSIFQSFSAGKPLGYEIKATIKGVKQADTVYLARYYADKRFYQDTAIADAKGFVSFSDTTHLKEGMYFLLLPGQKVFDFILNPSTLSFSIDTTNLIKSAHFKNSPDNTAFYDYQRFFMNQKTKADSINNLMKSAAATQKTVLTKQLSDIDSTMLAYIQNFLKTNPNSLFTAILKTTKDVDVPPAPKKADGSIDSSWQFHYYKKHYFDNVNFSDDRLIRTPVLVNKVDGYFKNLVVQRPDSIIKEIDMIISKCNPKGDLFEYYVREYTYKYETSQVMGMDAVFVHLGKEYYMKGKCFWATPETVKKIKERVDLLDPLLLGKKAPNLYMTDTTGTYRYLYDVQAKYTILFFWDSQCGHCQQETPKLYDWWLKNRAKGIQVYAANIERKDEEWLKFIRSKKIGGWLNVRDSKNHTDFKITYDIYATPVLYVLDKNKVIIAKRIGYENLDDFLVQYEKSLKTK
  protein production: failed

## MSLSVTIVMIEDDLGHARLIEKNIRRAGVNNEIIAFTDGTSALNYLFGDDKSGRVSAGRAQLVLLDLNLPDMTGIDILKLVKENPHTRRSPVVILTTTDDQREIQRCYDLGANVYITKPVNYENFANAIRQLGLFFSVMQVPETEGHHHHHH
  protein production: not failed

## LIHKYKNFVRAKSRSYFLVGADREDIVQEGMIGLFKAIRDYKEDKLSSFKAFAELCITRQIITAIKTATRQKHIPLNSYVSLDKPIYDEESDRTLLDVISEAKVTDPEEMIISQEEYTDIESKISELLSDLERKVLSLYLDGRSYQEISEQLNRHVKSIDNALQRVKRKLERYMEMRESTTLNS
  protein production: not failed

## MNWGEGEWNSFFHFFTKEFINMSESFKELFEQSIAGAQFYPGAIITAKVIDIDDDFVTLNAGLKSEGIVAVEEFYDKNGELEVKVGDTVEVALDSVEDGHGETLLSREKAKRQEAWRKLSKCHENNETVTGLISGKVKGGFTVEIGSIRAFLPGSLVDVRPVRDPSYLEGKELEFKVIKMDLKRNNIVVSRRAVVEEESSADRQALLESLHDGQELHGIVKNLTDYGAFIDLGGIDGLLHITDISWKRVKHPSEVLSVGQDVKVKVLSFDSERNRVSLGMKQLGNDPWVDLVERYPIGKRLQGKVTNITDYGCFVEIEEGVEGLVHMSEMDWTNKNVHPSKVVSLGDVVDVMVLEIDEERRRISLGMKQCVGNPWQQFASTHNKGEKVKGKIRSITDFGIFIGLDGDIDGLVHLSDISWTVPGEEAVKQFKKGQELEAVILAIDPERERISLGLKQLEGDSFASFAETYTKGSIVKGTVTAVEPKTVTVALAEDVSGTIRVSELSDERVDDATTIVKVGDEVEAKITNIDRKNRTISLSVKAKDAQDEADAIKKYSRTEAASTTLGDLLKEKMASKEGELEHHHHHH
  protein production: not failed

## MFSEVEMARDVAICAKHLNGQSPHQPILCRLLQDLIHEKACREHGFYLGITALKSIGNNKNNNIDNENNHQAKILTFPVSFTCRTFLPARGDILQGTVKKVLWNGAFIRSGPLRYAYLSLLKMPHYHYVHSPLSEDEKPHFQKDDLSKIAVGVVVRFQVLAVRFKERPHKRRNDYYVLATLEGNGSFGPISLTGSDEPYM
  protein production: failed

## MITSRSTGELVIPVSRRINNKDGNFGGVFLVTLRVQYFSRFYADFRMDEQGVIVLADQNGTIMVRHPFDTNMIGRNIAKGDIFSKYLPHASRGVHMVVAITDKVERMYGYERLNRYPLVVLAGKSKRAILGSWYESLYGSLIMLCLILPIPVLFATLISRQIKTTLKVEDELRLAYAAVEAIAMQDSLTGLANRRQLDVVLPAEIKRAKRTSQPLGVIMVDIDYFKRYNDYYGHPAGDLCIKAIANVLKNHTRRAGNLAARYGGEELTVLLPSCDQAAVLAAAERIVESIRGLQIAHDDSPEGYLTVSVGAYSYSAFNKEVDASGLLKCADDALYAAKQAGRNRARLSA
  protein production: failed

## MLDKVIYSLLRTQDPGLAQELYFRLQAKEQSFAEVAQKYSQGPESQTGGLVGPVEQSSLHPAMVQLLSSCQPGQISPPTRITEWYVIVRVEKFIPAQLEHHHHHH
  protein production: not failed

## MKTPTRVSFEKKIHTPPSGDRDAERSPPKKFLRGLSGKVFRKTPEFKKQQMPTFGYIEESQFTPNLGLMMSKRGNIPKPLNLSKPISPPPSLKKTAGSVASGFSKTGQLSALQSPVNITSSNKYNIKATNLTTSLLRESISDSTTMCDTLSDINLTVMDEDYRIDGDSYYEEDSPTFMISLERNIKKCNSQFSPKRYIGEKCLICEESISSTFTGEKVVESTCSHTSHYNCYLMLFETLYFQGKFPECKICGEVSKPKDKDIVPEMVSKLLTGAGAHDDGPSSNMQQQWIDLKTARSFTGEFPQFTPQEQLIRTADISCDGFRTPRLSNSNQFEAVSYLDSPFLNSPFVNKMATTDPFDLSDDEKLDCDDEIDESAAEVWFSKTGGEHVMVSVKFQEMRTSDDLGVLQDVNHVDHEELEEREKEWKKKIDQYIETNVDKDSEFGSLILFDKLMYSDDGEQWVDNNLVILFSKFLVLFDFEEMKILGKIPRDQFYQVIKFNEDVLLCSLKSTNIPEIYLRFNENCEKWLLPKWKYCLENSSLETLPLSEIVSTVKELSHVNIIGALGAPPDVISAQSHDSRLPWKRLHSDTPLKLIVCLNLSHADGELYRKRVLKSVHQILDGLNTDDLLGIVVVGRDGSGVVGPFGTFIGMINKNWDGWTTFLDNLEVVNPNVFRDEKQQYKVTLQTCERLASTSAYVDTDDHIATGYAKQILVLNGSDVVDIEHDQKLKKAFDQLSYHWRYEISQRRMTPLNASIKQFLEELHTKRYLDVTLRLPQATFEQVYLGDMAAGEQKTRLIMDEHPHSSLIEIEYFDLVKQQRIHQTLEVPNL
  protein production: failed

## MLEFTKRSLMNKYNINERVLELYERALNDVEKEFKYYDEIREYNQLKVLKAFQEERISESHFTNSSGYGYNDIGRDSLDRVYANIFNTESAFVRPHFVNGTHAIGAALFGNLRPNDTMMSICGMPYDTLHDIIGMDDSKKVGSLREYGVKYKMVDLKDGKVDINTVKEELKKDDSIKLIHIQRSTGYGWRKSLRIAEIAEIIKSIREVNENVIVFVDNCYGEFVEEKEPTDVGADIIAGSLIKNIGGGIATTGGYIAGKEEYVTQATFRVTVPGIGGECGSTFGVMRSLYEGLFMAPHVTIEAVKGAVFCARIMELAGFDVLPKYNDKRTDIIQAIKFNDEKKLIDFIKGIQTASPVDSFVQCEAWDMPGYEDKVIMAAGTFVQGASIELSADAPIREPYIGYLQGGLTFDHAKLGVLIALSKLIM
  protein production: not failed

## MEYNRNFFIAIGLSFGVLIAWHFFYVAPKQTELQQKQLIAQQLLKQQSAVSSPTANFSDSASTHESALIINHPMSPEIRDAELAKTNRVAIKTNELEGSINLVGAQFDDLLLKKYRLTVDKKSSEIALLNPKGFKETYLAEFGFTSSSLSKDALPQSDTRWHIEGNNTTLTPSTPVTLIYNNGQGQTFRRILSIDDHYMFTIEDSITNESDKPIYLSSYARVARAAPPEHTNATYLLHEGMIGIAGDSLKTEKYKTLAELNPNPDNGQKSMTFSKVIGGWVGITDKYWAVAVIPPQDKEYTSRFIYFDRLQTHYQSDLLGSLLTVAPNETKTITNRLFAGAKQVEIINHYQNDLKIKKFALLIDWGWFDFITKPMFSLIDILYKQTGNFGIAILLVTVLLKTLLFPLANKSYKSMARMKLIQPMLLEIKEKYPEDRTKQQQAIIELYKTQKINPLAGCWPMLVQFPIFFALYKVLYITIEMRHAPFFGWIQDLAAPDPTSLFNLFGLLPYTVPAFLMLGAWPLIMGITMFLQMRMNPAPQDQTQAMIFAWMPIVFTFMLASFPVGLVIYWAWNNILSMIQQGIMMKRQGVKIELFDNLKAMWRKSPKKEAHE
  protein production: failed

## PRSRTKISLEALGILQSFIHDVGLYPDQEAIHTLSAQLDLPKHTIIKFFQNQRYHVKH
  protein production: not failed

## MSLVENLSLEPQPKRRKIDPEVKESPSRNCSHWFVRNKVCASCNTIVDNYQGRSFDYLYTGIQMSNEALGFTKRLISQTSWLEDKKLHLVLDLDHTLVHTIKVSQLSESEKYITEEVESRKDLRRFNTGFPEESLIKLRSFVHQFLKECNEMFSLYVYTKGGYDYAQLVLEMIDPDKIYFGNRVITRRESPGFKTLDLVLADERGIVVVDDKSSVWPHDKKNLLQIARYKYFGDQSCLLSECKKKIDESDEKGPLNTALRFLMDVHEEFFCDWSRKDLDSVDVRPLLKEISLRWKRKADGVV
  protein production: failed

## MSLKLTPEAAGTFAIAPTPFHDDGKIDDVSIDRLTDFYAEVGCEGVTVLGILGEAPKLDAAEAEAVATRFIKRAKSMQVIVGVSAPGFAAMRRLARLSMDAGAAGVMIAPPPSLRTDEQITTYFRQATEAIGDDVPWVLQDYPLTLSVVMTPKVIRQIVMDSASCVMLKHEDWPGLEKITTLRGFQKDGSLRPLSILCGNGGLFLDFEMERGADGAMTGYCFPDMLVDVVKLSKAGQRDLAHNLFDAHLPLIRYEHQQGVGLSVRKYVLKKRGLLSSSAQRKPGASLTDTAREEVDYLLSRLARVEGHHHHHH
  protein production: not failed

## MSLSDRVKKIESFTLTLPRETPYLGKPRPGEEPNGRGYLVRKANRTVYPTFDRSVLVRIETENGAVGWGETYGLVAPRATMEIIDDLLADFTIGRDPFDAAAIHDDLYDLMRVRGYTGGFYVDALAAIDIALWDLAGKLAGLPVCKLLGGQRRDRIAAYISGLPEDTRAKRAELAAAWQAKGFSSFKFASPVADDGVAKEMEILRERLGPAVRIACDMHWAHTASEAVALIKAMEPHGLWFAEAPVRTEDIDGLARVAASVSTAIAVGEEWRTVHDMVPRVARRALAIVQPEMGHKGITQFMRIGAYAHVHHIKVIPHATIGAGIFLAASLQASAALANVDCHEFQHSIFEPNRRLLVGDMDCLNGEYVVPTGPGLGVEPSKEAQGLLKKHEGHHHHHH
  protein production: not failed
